In patent US9994628B2, “Peptides and combination of peptides for use in immunotherapy against various tumors” (IMMATICS BIOTECHNOLOGIES GMBH, priority 2015, dated 2018):

How the values were obtained:
[1] = molecular target: HLA-A*02:01 (Homo sapiens, UniProt P04439, D140Y/D185E/D98H/E176V/E277Q/G131W/G231S/I119V/I121R/I166T/I218V/L300P/L318F/N151K/N90K/P208A/P217A/Q86G/Q94H/R138H/R169H/T345S); test: MHC binding assay: UV-ligand exchange and β2m ELISA (peptide exchange yield, Table 7); details: binding of HLA-class I restricted peptides to HLA-A*02:01, UV-ligand exchange
Summary of the method: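 Peptide-MHC complexes made by UV-mediated exchange of a cleavable ligand for test peptide; exchange yield measured by ELISA detecting β2m of stabilized complexes captured on streptavidin, using refolded HLA-A*02:01/MLA-001 monomer standards (15-500 ng/ml). Samples diluted 100-fold; HRP anti-β2m, TMB, absorbance 450 nm.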

[2] = system: CD8+ T cells; test: In vitro T-cell priming assay with aAPCs loaded with peptide/MHC complexes and anti-CD28 antibody, pMHC multimer readout; type: cell-based, human; details: for Wells positive [%]: percentage of positive wells among evaluable, HLA-A*02 restricted peptides; for donors (in vitro immunogenicity): positive donors; for donors (in vitro immunogenicity) / wells (in vitro immunogenicity): healthy HLA-A*02 donors, three stimulation cycles; for wells (in vitro immunogenicity): positive wells
Text: In order to obtain information regarding the immunogenicity of the TUMAPs of the present invention, the inventors performed investigations using an in vitro T-cell priming assay based on repeated stimulations of CD8+ T cells with artificial antigen presenting cells (aAPCs) loaded with peptide/MHC complexes and anti-CD28 antibody.
In order to perform in vitro stimulations by artificial antigen presenting cells loaded with peptide-MHC complex (pMHC) and anti-CD28 antibody, the inventors first isolated CD8+ T cells from fresh HLA-A*02 leukapheresis products via positive selection using CD8 microbeads (Miltenyi Biotec, Bergisch-Gladbach, Germany) of healthy donors obtained from the University clinics Mannheim, Germany, after informed consent. PBMCs and isolated CD8+ lymphocytes were incubated in T-cell medium (TCM) until use consisting of RPMI-Glutamax (Invitrogen, Karlsruhe, Germany) supplemented with 10% heat inactivated human AB serum (PAN-Biotech, Aidenbach, Germany), 100 U/ml Penicillin/100 μg/ml Streptomycin (Cambrex, Cologne, Germany), 1 mM sodium pyruvate (CC Pro, Oberdorla, Germany), 20 μg/ml Gentamycin (Cambrex). 2.5 ng/ml IL-7 (PromoCell, Heidelberg, Germany) and 10 U/ml IL-2 (Novartis Pharma, Nümberg, Germany) were also added to the TCM at this step. Generation of pMHC/anti-CD28 coated beads, T-cell stimulations and readout was performed in a highly defined in vitro system using four different pMHC molecules per stimulation condition and 8 different pMHC molecules per readout condition.
The purified co-stimulatory mouse IgG2a anti human CD28 Ab 9.3 (Jung et al., 1987) was chemically biotinylated using Sulfo-N-hydroxysuccinimidobiotin as recommended by the manufacturer (Perbio, Bonn, Germany). Beads used were 5.6 μm diameter streptavidin coated polystyrene particles (Bangs Laboratories, Illinois, USA).
pMHC used for positive and negative control stimulations were A*0201/MLA-001 (peptide […] (SEQ ID NO. 289) from modified Melan-A/MART-1) and A*0201/DDX5-001 ([…] from DDX5, SEQ ID NO. 290), respectively.
800.000 beads/200 μl were coated in 96-well plates in the presence of 4×12.5 ng different biotin-pMHC, washed and 600 ng biotin anti-CD28 were added subsequently in a volume of 200 μl. Stimulations were initiated in 96-well plates by co-incubating […] CD8+ T cells with 2×10^5 washed coated beads in 200 μl TCM supplemented with 5 ng/ml IL-12 (PromoCell) for 3 days at 37° C. Half of the medium was then exchanged by fresh TCM supplemented with 80 U/ml IL-2 and incubating was continued for 4 days at 37° C. This stimulation cycle was performed for a total of three times. For the pMHC multimer readout using 8 different pMHC molecules per condition, a two-dimensional combinatorial coding approach was used as previously described (Andersen et al., 2012) with minor modifications encompassing coupling to 5 different fluorochromes. Finally, multimeric analyses were performed by staining the cells with Live/dead near IR dye (Invitrogen, Karlsruhe, Germany), CD8-FITC antibody clone SK1 (BD, Heidelberg, Germany) and fluorescent pMHC multimers. For analysis, a BD LSRII SORP cytometer equipped with appropriate lasers and filters was used. Peptide specific cells were calculated as percentage of total CD8+ cells. Evaluation of multimeric analysis was done using the FlowJo software (Tree Star, Oregon, USA). In vitro priming of specific multimer+ CD8+ lymphocytes was detected by comparing to negative control stimulations.

Substance | Peptide exchange (MHC class I binding score, peptide exchange yield) [1] | other results
34 (TLNTLDINL; listed as Homo sapiens) [compound 34] | +++ (≥50% = +++) | Wells positive [%] [2]: ++++ (>=70% = ++++)
39 (YLEDGFAYV; listed as Homo sapiens) [compound 39] | +++ (≥50% = +++) | Wells positive [%] [2]: ++++ (>=70% = ++++)
244 (NVAEIVIHI; listed as Homo sapiens) [compound 244] | +++ (≥50% = +++) | –
245 (ALLEEEEGV; listed as Homo sapiens) [compound 245] | ++ (≥20% = ++) | –
246 (ALAGIVTNV; listed as Homo sapiens) [compound 246] | +++ (≥50% = +++) | –
247 (NLLIDDKGTIKL; listed as Homo sapiens) [compound 247] | ++ (≥20% = ++) | –
248 (VLMQDSRLYL; listed as Homo sapiens) [compound 248] | +++ (≥50% = +++) | –
249 (YLYQILQGI; listed as Homo sapiens) [compound 249] | +++ (≥50% = +++) | –
250 (LMQDSRLYL; listed as Homo sapiens) [compound 250] | +++ (≥50% = +++) | –
251 (LLWGNLPEI; listed as Homo sapiens) [compound 251] | +++ (≥50% = +++) | –
252 (SLMEKNQSL; listed as Homo sapiens) [compound 252] | ++ (≥20% = ++) | –
253 (KLLAVIHEL; listed as Homo sapiens) [compound 253] | +++ (≥50% = +++) | –
254 (ALGDKFLLRV; listed as Homo sapiens) [compound 254] | ++ (≥20% = ++) | –
255 (FLMKNSDLYGA; listed as Homo sapiens) [compound 255] | +++ (≥50% = +++) | –
256 (FLNDIFERI; listed as Homo sapiens) [compound 256] | +++ (≥50% = +++) | –
257 (KLIDHQGLYL; listed as Homo sapiens) [compound 257] | +++ (≥50% = +++) | –
258 (QLVQRVASV; listed as Homo sapiens) [compound 258] | ++ (≥20% = ++) | –

Substance | Peptide exchange (MHC class I binding score, peptide exchange yield) [1] | other results
259 (GPGIFPPPPPQP; listed as Homo sapiens) [compound 259] | + (≥10% = +) | –
260 (ALNESLVEC; listed as Homo sapiens) [compound 260] | +++ (≥50% = +++) | –
261 (GLAALAVHL; listed as Homo sapiens) [compound 261] | +++ (≥50% = +++) | –
262 (LLLEAVWHL; listed as Homo sapiens) [compound 262] | +++ (≥50% = +++) | –
263 (SIIEYLPTL; listed as Homo sapiens) [compound 263] | +++ (≥50% = +++) | –
264 (TLHDQVHLL; listed as Homo sapiens) [compound 264] | ++ (≥20% = ++) | –
265 (FLLDKPQDLSI; listed as Homo sapiens) [compound 265] | +++ (≥50% = +++) | –
266 (FLLDKPQDL; listed as Homo sapiens) [compound 266] | ++ (≥20% = ++) | –
267 (YLLDMPLWYL; listed as Homo sapiens) [compound 267] | +++ (≥50% = +++) | –
268 (SLDKDIVAL; listed as Homo sapiens) [compound 268] | ++ (≥20% = ++) | –
269 (GLLDCPIFL; listed as Homo sapiens) [compound 269] | ++++ (≥75% = ++++) | –
270 (TLLTFFHEL; listed as Homo sapiens) [compound 270] | +++ (≥50% = +++) | –
271 (VLIEYNFSI; listed as Homo sapiens) [compound 271] | +++ (≥50% = +++) | –
272 (FVMEGEPPKL; listed as Homo sapiens) [compound 272] | ++ (≥20% = ++) | –
287 (KIQEILTQV; listed as Homo sapiens) [compound 287] | – | donors (in vitro immunogenicity) [2]: +++ (50%-69% = +++); wells (in vitro immunogenicity) [2]: + (<20% = +)
288 (SLYKGLLSV; listed as Homo sapiens) [compound 288] | – | donors (in vitro immunogenicity) [2]: ++++ (>=70% = ++++); wells (in vitro immunogenicity) [2]: ++ (21%-49% = ++)

Second part, led by results:

Peptide exchange (MHC class I binding score, peptide exchange yield) [1] | Substance | other results
++ (≥20% = ++) | 273 (SLNKQIETV; listed as Homo sapiens) [compound 273] | –
+++ (≥50% = +++) | 274 (TLYNPERTITV; listed as Homo sapiens) [compound 274] | –
++ (≥20% = ++) | 275 (AVPPPPSSV; listed as Homo sapiens) [compound 275] | –
+++ (≥50% = +++) | 276 (RMPTVLQCV; listed as Homo sapiens) [compound 276] | –
+++ (≥50% = +++) | 277 (KLQEELNKV; listed as Homo sapiens) [compound 277] | –
+++ (≥50% = +++) | 278 (VLEDKVLSV; listed as Homo sapiens) [compound 278] | –
++ (≥20% = ++) | 279 (VLMDEGAVLTL; listed as Homo sapiens) [compound 279] | –
+++ (≥50% = +++) | 280 (HLWGHALFL; listed as Homo sapiens) [compound 280] | –
++ (≥20% = ++) | 281 (LLLESDPKVYSL; listed as Homo sapiens) [compound 281] | –
++ (≥20% = ++) | 282 (SLYALHVKA; listed as Homo sapiens) [compound 282] | –
+++ (≥50% = +++) | 283 (ALSELLQQV; listed as Homo sapiens) [compound 283] | –
++ (≥20% = ++) | 284 (KLMDPGSLPPL; listed as Homo sapiens) [compound 284] | –
+++ (≥50% = +++) | 285 (MLLDTVQKV; listed as Homo sapiens) [compound 285] | –
+++ (≥50% = +++) | 286 (FLTEMVHFI; listed as Homo sapiens) [compound 286] | –
